# Details: Homo sapiens, 25 °C, Urea, Fluorescence, Potassium phosphate 25 mM, NaCl 25 mM, reversible: Yes, whole UniProt chain shown
protein,measurement,setting,value
"Prolactin wild type, P01236 (protein) MNIKGSPWKGSLLLLLVSNLLLCQSVAPLPICPGGAARCQVTLRDLFDRAVVLSHYIHNLSSEMFSEFDKRYTHGRGFITKAINSCHTSSLATPEDKEQAQQMNQKDFLSLIVSILRSWNEPLYHLVTEVRGMQEAPEAILSKAVEIEEQTKRLLEGMELIVSQVHPETKENEIYPVWSGLPSLQMADEESRLSAYYNLLHCLRRDSHKIDNYLKLLKCRIIHNNNC",denaturant m value,pH 5.8,0.79 kcal/mol/M
same,denaturant midpoint (higher = more stable),pH 5.8,5.48 M
same,unfolding free energy,pH 5.8,4.3 kcal/mol
same,denaturant m value,pH 7.8,1.35 kcal/mol/M
same,denaturant midpoint (higher = more stable),pH 7.8,6.08 M
same,unfolding free energy,pH 7.8,8.2 kcal/mol

# Source: FireProtDB (doi:10.1002/pro.100)
